Results: PMC6536115

Substrate: C[C@H](O)C(=O)O
Experiment: cells, lysate or membranes
Conditions: proton

B1: Monocarboxylate transporter 1 (MCT1) (Mus musculus) (protein)
chain: MPPAIGGPVGYTPPDGGWGWAVLVGAFISIGFSYAFPKSITVFFKEIEVIFSATTSEVSWISSIMLAVMYAGGPISSILVNKYGSRPVMIAGGCLSGCGLIAASFCNTVQELYLCIGVIGGLGLAFNLNPALTMIGKYFYKKRPLANGLAMAGSPVFLSTLAPLNQAFFDIFDWRGSFLILGGLLLNCCVAGSLMRPIGPEQVKLEKLKSKESLQEAGKSDANTDLIGGSPKGEKLSVFQTINKFLDLSLFTHRGFLLYLSGNVVMFFGLFTPLVFLSSYGKSKDFSSEKSAFLLSILAFVDMVARPSMGLAANTKWIRPRIQYFFAASVVANGVCHLLAPLSTTYVGFCVYAGVFGFAFGWLSSVLFETLMDLIGPQRFSSAVGLVTIVECCPVLLGPPLLGRLNDMYGDYKYTYWACGVILIIAGIYLFIGMGINYRLLAKEQKAEEKQKREGKEDEASTDVDEKPKETMKAAQSPQQHSSGDPTEEESPV
For B1, the Km was 3.88 ± 0.86 mM and the Vmax was 0.414 µmol/min/mg.
